Data on 3 substances can be found in US20110311550A1.

Like-named read-outs stand apart in the source and are kept apart here.

The target of assay [1] is HCV E1E2 complex, isolate H77 (genotype 1a) (hepatitis C virus genotype 1a, isolate H77) (UniProt P27958). Kind of assay: ELISA, mAb with E1E2 (H77), then CD81-LEL plate.
The target in assay [2] is HCV E1E2 complex, isolate HCV-1 (genotype 1a), vaccinia-expressed (hepatitis C virus genotype 1a, isolate HCV-1) (UniProt P26664). Kind of assay: apparent affinity: half-maximal binding, ELISA on lectin-captured E1E2.
The target of assay [3] is HCV E1E2 complex, isolate H77 (genotype 1a) (hepatitis C virus genotype 1a, isolate H77) (UniProt P27958). The description is as above.
Assay [4] shares this target.
The target of assay [5] is E1E2 complex of HCV isolate H77 (genotype 1a), wild type (HCV isolate H77) (UniProt P27958). Kind of assay: competition ELISA on H77 E1E2; competitor m42 (Fab P1).
Assay [6] has as its target HCV E1E2 complex, isolate H77 (genotype 1a) (hepatitis C virus genotype 1a, isolate H77) (UniProt P27958). The assay is described as follows: competition ELISA on lectin-captured H77 E1E2; competitor: Fab Q1.
For assay [7], the target named is E1E2 complex of HCV isolate H77 (genotype 1a), wild type (HCV isolate H77) (UniProt P27958). The assay is described as follows: competition ELISA on H77 E1E2; competitor m40 (Fab N4).
Assay [8] has as its target HCV E1E2 complex, isolate H77 (genotype 1a) (hepatitis C virus genotype 1a, isolate H77) (UniProt P27958). Kind of assay: competition ELISA on lectin-captured H77 E1E2; competitor: Fab S1.
Assay [9] has the same target. The assay is described as follows: competition ELISA on lectin-captured H77 E1E2; competitor: Fab U1.
For assay [10] the target is unchanged. Kind of assay: competition ELISA on lectin-captured H77 E1E2; competitor: Fab R1.
For assay [11] the target is unchanged. The assay is described as follows: competition ELISA on lectin-captured H77 E1E2; competitor: AR2A (in the Blocking Fab columns).
The target in assay [12] is E1E2 complex of HCV isolate H77 (genotype 1a), wild type (HCV isolate H77) (UniProt P27958). Kind of assay: competition ELISA on H77 E1E2; competitor m45 (Fab P3).
Assay [13] deals with HCV E1E2 complex, isolate H77 (genotype 1a) (hepatitis C virus genotype 1a, isolate H77) (UniProt P27958). The assay is described as follows: competition ELISA on lectin-captured H77 E1E2; competitor: Fab T1.
The target is the same in assay [14]. The assay is described as follows: competition ELISA on lectin-captured H77 E1E2; competitor: Fab Q2.
For assay [15] the target is unchanged. The assay is described as follows: competition ELISA on lectin-captured H77 E1E2; competitor: AR1B (in the Blocking Fab columns).
Assay [16] has as its target E1E2 complex of HCV isolate H77 (genotype 1a), wild type (HCV isolate H77) (UniProt P27958). Kind of assay: competition ELISA on H77 E1E2; competitor m44 (Fab P2).
Assay [17] has as its target HCV E1E2 complex, isolate H77 (genotype 1a) (hepatitis C virus genotype 1a, isolate H77) (UniProt P27958). Kind of assay: competition ELISA on lectin-captured H77 E1E2; competitor: Fab V1.
The target of assay [18] is E1E2 complex of HCV isolate H77 (genotype 1a), wild type (HCV isolate H77) (UniProt P27958). Kind of assay: competition ELISA on H77 E1E2; competitor m38 (Fab N2).
The target is the same in assay [19]. The assay is described as follows: competition ELISA on H77 E1E2; competitor m37 (Fab N1).
The target of assay [20] is HCV E1E2 complex, isolate H77 (genotype 1a) (hepatitis C virus genotype 1a, isolate H77) (UniProt P27958). The assay is described as follows: competition ELISA on lectin-captured H77 E1E2; competitor: Fab P5.
Assay [21] concerns the target E1E2 complex of HCV isolate H77 (genotype 1a), wild type (HCV isolate H77) (UniProt P27958). Kind of assay: competition ELISA on H77 E1E2; competitor m39 (Fab N3).
For assay [22] the target is unchanged. Kind of assay: competition ELISA on H77 E1E2; competitor m43 (Fab P1a).
The target is the same in assay [23]. Kind of assay: competition ELISA on H77 E1E2; competitor m46 (Fab P4).
Assay [24] concerns the target HCV E1E2 complex, isolate H77 (genotype 1a) (hepatitis C virus genotype 1a, isolate H77) (UniProt P27958). The assay is described as follows: competition ELISA on lectin-captured H77 E1E2; competitor: Fab P6.
Assay [25] has as its target E1E2 complex of HCV isolate H77 (genotype 1a), wild type (HCV isolate H77) (UniProt P27958). Kind of assay: competition ELISA on H77 E1E2; competitor m41 (Fab O1).

As for MAb AR3D (IgG1 from Fab L4) (antibody), the concentration for half-maximal inhibition (IC50) in assay [1] came out at 1 nM. The EC50 in assay [2] turned out to be 2.4 nM; in [3] it was 4 nM.
MAb AR3D (antibody) gave a residual binding in [4] of 58%.
With mouse MAb A4 (antibody), the % residual binding is 101% in [5]; 100% in assay [7]; 100% in assay [12]; 102% in assay [16]; 101% in assay [18]; 100% in assay [19]. For the same substance, the % residual binding came out at 96% in [21], 100% in [22], 98% in assay [23] and 96% in [25]. The residual binding in assay [6] is 95%; in [8] it was 100%; in [9] it was 101%; in assay [10], 99%; in assay [11], 87%; in assay [13], 99%. Further, the residual binding in assay [14] came to 98%; in assay [15], 85%; in [17], 99%; in assay [20] it was 100%; in [24], 99%.
